Tested on: diabetic rats
Experiment: Insulin delivery through catheter and implanted pocket in diabetic rats, plasmatic glycaemia
Assay type: in vivo, rat
Procedure: Rapid Insulin was injected through a catheter linked to a pocket as disclosed in the examples of WO 2015/086550 (three layer, including one of non-woven polymer).
The pocket was implanted in the intraperitoneal cavity of rats.

## insulin
Inferred from glycaemia kinetics, pocket implanted intraperitoneally
  diffusion of insulin out of the device: instant diffusion
Insulin injected through catheter linked to pocket implanted in the intraperitoneal cavity (FIG. 2, circles)
  plasmatic glycaemia: rapid decrease of plasmatic glycaemia

Reference: patent US20190255310A1, “KIT FOR IN SITU DELIVERY OF A COMPOUND OF INTEREST” (Defymed, priority 2016, published 2019)
